# Source: PMC9723610
# Like-named read-outs stand apart in the source and are kept apart here.
# Assays:
# [1] = biological target: T1, hG3BP1 (human, UniProt Q13283 1-466); experiment: EMSA
# [2] = biological target: T1, hG3BP1; experiment: EMSA; remark: listed apart in the source
# T1 sequence (Q13283 whole entry): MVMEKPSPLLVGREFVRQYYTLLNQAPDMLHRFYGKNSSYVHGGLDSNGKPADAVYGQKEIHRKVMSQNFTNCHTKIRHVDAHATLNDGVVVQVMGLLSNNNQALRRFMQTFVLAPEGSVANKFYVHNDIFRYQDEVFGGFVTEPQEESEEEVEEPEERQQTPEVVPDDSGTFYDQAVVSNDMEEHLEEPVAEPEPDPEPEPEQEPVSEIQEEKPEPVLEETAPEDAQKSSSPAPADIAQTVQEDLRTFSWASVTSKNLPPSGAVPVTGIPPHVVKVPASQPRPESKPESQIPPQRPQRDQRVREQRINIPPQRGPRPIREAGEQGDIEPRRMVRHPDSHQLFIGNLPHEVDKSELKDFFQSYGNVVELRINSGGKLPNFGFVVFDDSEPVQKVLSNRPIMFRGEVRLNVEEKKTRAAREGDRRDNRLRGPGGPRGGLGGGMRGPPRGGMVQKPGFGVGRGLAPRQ
Binder,binding result [1],binding result [2]
GGGUUAGGGUUAGGGUUAGGG (structured_RNA) [rOG0 rG4],binds,–
AGGGGGCCGUGGGGUGGGAGCUGGGG (structured_RNA) [BCL2 rG4 (rBCL2)],binds,–
GUGUGGGAGGGGCGGGUCUGGGUGCG (structured_RNA) [NRAS rG4 (rNRAS)],binds,–
AGGAGGAGGAGGAGG (structured_RNA) [r(AGG)5 rG4],–,binds
